Our source for the IC50, pseudovirus neutralization study against wild-type SARS-CoV-2 values is patent US20230399385A1.

The target in this experiment is SARS-CoV-2 spike (S) glycoprotein, wild-type, on pseudotyped virus (SARS-CoV-2) (UniProt P0DTC2). Put plainly: cell-based or functional assay.

Chain of JS016 (antibody) (VH): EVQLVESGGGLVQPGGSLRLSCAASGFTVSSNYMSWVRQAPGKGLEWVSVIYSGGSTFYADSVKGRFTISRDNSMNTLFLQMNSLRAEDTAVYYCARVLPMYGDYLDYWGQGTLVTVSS
Chain of JS016 (antibody) (VL): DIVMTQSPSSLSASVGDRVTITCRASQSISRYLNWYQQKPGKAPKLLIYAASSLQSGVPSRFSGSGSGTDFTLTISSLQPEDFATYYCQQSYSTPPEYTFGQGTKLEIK

Take JS016 (antibody): the IC50, pseudovirus neutralization study against wild-type SARS-CoV-2 was determined as 63.1 ng/mL.
